Experimental findings from article doi:10.1101/2025.08.17.670156 (bioRxiv, 2025) are described below.

This data set deals with the molecule itself. As to the kind of experiment: deep-blue autofluorescence of amyloid fibrils.

B1: double plant homeodomain fingers 3a (DPF3 isoform a), wild type (natural protein, human, UniProt Q92784-2 1-357, looked up)
chain: MATVIHNPLKALGDQFYKEAIEHCRSYNSRLCAERSVRLPFLDSQTGVAQNNCYIWMEKRHRGPGLAPGQLYTYPARCWRKKRRLHPPEDPKLRLLEIKPEVELPLKKDGFTSESTTLEALLRGEGVEKKVDAREEESIQEIQRVLENDENVEEGNEEEDLEEDIPKRKNRTRGRARGSAGGRRRHDAASQEDHDKPYVCDICGKRYKNRPGLSYHYAHTHLASEEGDEAQDQETRSPPNHRNENHRPQKGPDGTVIPNNYCDFCLGGSNMNKKSGRPEELVSCADCGRSAHLGGEGRKEKEAAAAARTTEDLFGSTSESDTSTFHGFDEDDLEEPRSCRGRRSGRGSPTADKKGSC
For the protein B1, the binding result was “binds”.

B2: DPF3a phosphomimetic S348E (natural protein, human, UniProt Q92784-2 1-357, looked up)
chain: MATVIHNPLKALGDQFYKEAIEHCRSYNSRLCAERSVRLPFLDSQTGVAQNNCYIWMEKRHRGPGLAPGQLYTYPARCWRKKRRLHPPEDPKLRLLEIKPEVELPLKKDGFTSESTTLEALLRGEGVEKKVDAREEESIQEIQRVLENDENVEEGNEEEDLEEDIPKRKNRTRGRARGSAGGRRRHDAASQEDHDKPYVCDICGKRYKNRPGLSYHYAHTHLASEEGDEAQDQETRSPPNHRNENHRPQKGPDGTVIPNNYCDFCLGGSNMNKKSGRPEELVSCADCGRSAHLGGEGRKEKEAAAAARTTEDLFGSTSESDTSTFHGFDEDDLEEPRSCRGRRSGRGEPTADKKGSC
Consider B2, for which the binding result is on record as “binds”.

B3: DPF3a phosphomimetic S138E (natural protein, human, UniProt Q92784-2 1-357, looked up)
chain: MATVIHNPLKALGDQFYKEAIEHCRSYNSRLCAERSVRLPFLDSQTGVAQNNCYIWMEKRHRGPGLAPGQLYTYPARCWRKKRRLHPPEDPKLRLLEIKPEVELPLKKDGFTSESTTLEALLRGEGVEKKVDAREEEEIQEIQRVLENDENVEEGNEEEDLEEDIPKRKNRTRGRARGSAGGRRRHDAASQEDHDKPYVCDICGKRYKNRPGLSYHYAHTHLASEEGDEAQDQETRSPPNHRNENHRPQKGPDGTVIPNNYCDFCLGGSNMNKKSGRPEELVSCADCGRSAHLGGEGRKEKEAAAAARTTEDLFGSTSESDTSTFHGFDEDDLEEPRSCRGRRSGRGSPTADKKGSC
As to B3, the binding result was “binds”.
